From paper PMC11926106
Where “and” joins values, the source holds several entries; their conditions need not be identical. Identical values can stand only once.

How the values were obtained:
glycinin (soybean) [1] = experiment: mass photometry; label-free glycinin 0.48 µg/mL adsorbed on a supported lipid bilayer of DOPC, 20 mM NaCl, 5 min incubation; oligomers counted among the membrane-adsorbed particles
glycinin (soybean) [2] = experiment: mass photometry; label-free glycinin 0.48 µg/mL adsorbed on a supported lipid bilayer of DOPC, 365 mM NaCl, 5 min incubation; oligomers counted among the membrane-adsorbed particles

Chain of glycinin (P04776 20-495): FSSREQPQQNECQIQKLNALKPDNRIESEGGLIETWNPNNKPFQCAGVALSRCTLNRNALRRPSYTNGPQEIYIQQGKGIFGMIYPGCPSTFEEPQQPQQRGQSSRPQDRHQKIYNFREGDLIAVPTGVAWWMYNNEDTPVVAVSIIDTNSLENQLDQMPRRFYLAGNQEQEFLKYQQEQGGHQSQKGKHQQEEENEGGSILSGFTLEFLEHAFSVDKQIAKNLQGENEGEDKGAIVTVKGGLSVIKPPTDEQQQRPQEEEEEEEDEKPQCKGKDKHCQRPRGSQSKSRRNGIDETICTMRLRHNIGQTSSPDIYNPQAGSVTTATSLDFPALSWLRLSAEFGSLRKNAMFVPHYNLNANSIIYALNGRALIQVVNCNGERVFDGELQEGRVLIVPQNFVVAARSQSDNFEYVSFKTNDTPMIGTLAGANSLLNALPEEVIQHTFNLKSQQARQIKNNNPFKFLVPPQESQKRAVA

stoichiometry N (glycinin (soybean) [1]): 3 and 6
stoichiometry N (glycinin (soybean) [2]): 9
Substance: glycinin (natural protein)
